From patent US20130005646A1 (Novo Nordisk, published 2013) come the findings set out here.

Starred links: 1 amine or outer side, 2 acyl side, 3 side chain; linkers in the order of their positions; H or OH if unused. Positions of bridges follow the written chain, without caps; N, C: chain ends. *: point of attachment. C20 diacid = O=C(O)CCCCCCCCCCCCCCCCCCC(=O)*; γGlu = O=C(O)[C@H](CCC(=O)[*:2])N[*:1]

The target of assay [1] is T1, human amylin 3(a) receptor (human calcitonin receptor + RAMP-3) (human, UniProt P30988 25-474; O60896 24-148).
T1 sequence (looked up) 1: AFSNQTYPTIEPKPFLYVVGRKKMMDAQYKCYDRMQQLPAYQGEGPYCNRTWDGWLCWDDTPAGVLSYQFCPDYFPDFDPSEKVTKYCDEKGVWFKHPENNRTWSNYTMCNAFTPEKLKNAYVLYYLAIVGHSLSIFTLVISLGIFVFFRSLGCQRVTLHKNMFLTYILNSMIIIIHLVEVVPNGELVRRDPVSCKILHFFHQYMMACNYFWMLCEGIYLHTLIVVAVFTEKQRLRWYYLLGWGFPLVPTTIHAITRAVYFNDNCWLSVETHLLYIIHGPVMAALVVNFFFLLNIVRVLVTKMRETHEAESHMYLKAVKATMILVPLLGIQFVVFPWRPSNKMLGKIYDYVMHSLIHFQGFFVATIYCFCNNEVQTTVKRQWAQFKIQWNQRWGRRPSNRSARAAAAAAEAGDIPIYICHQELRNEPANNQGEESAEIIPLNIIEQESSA
T1 sequence (looked up) 2: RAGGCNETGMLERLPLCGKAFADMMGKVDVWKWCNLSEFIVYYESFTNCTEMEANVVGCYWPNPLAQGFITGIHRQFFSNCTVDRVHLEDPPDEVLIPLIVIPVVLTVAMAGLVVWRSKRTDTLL
Put plainly: cell-based or functional assay.

Assay [2] addresses T2, human calcitonin (a) receptor (human, UniProt P30988 25-474).
T2 sequence (looked up): T1 sequence (looked up) 1
The assay can be described thus: cell-based or functional assay.

B1: N-alpha-[(S)-4-Carboxy-4-(19-carboxynonadecanoylamino)butyryl]-His-His-[His1,Glu14,His17,His29]-pramlintide (peptide)
peptide: {C20 diacid-γGlu}-HHHCNTATCATQRLAEFLHHSSNNFGPILPHTNVGSNTY-NH2
modifications: disulfide 4-9
SMILES: CC[C@H](C)[C@H](NC(=O)[C@@H]1CCCN1C(=O)CNC(=O)[C@H](Cc1ccccc1)NC(=O)[C@H](CC(N)=O)NC(=O)[C@H](CC(N)=O)NC(=O)[C@H](CO)NC(=O)[C@H](CO)NC(=O)[C@H](Cc1c[nH]cn1)NC(=O)[C@H](Cc1c[nH]cn1)NC(=O)[C@H](CC(C)C)NC(=O)[C@H](Cc1ccccc1)NC(=O)[C@H](CCC(=O)O)NC(=O)[C@H](C)NC(=O)[C@H](CC(C)C)NC(=O)[C@H](CCCNC(=N)N)NC(=O)[C@H](CCC(N)=O)NC(=O)[C@@H](NC(=O)[C@H](C)NC(=O)[C@@H]1CSSC[C@H](NC(=O)[C@H](Cc2c[nH]cn2)NC(=O)[C@H](Cc2c[nH]cn2)NC(=O)[C@H](Cc2c[nH]cn2)NC(=O)CC[C@H](NC(=O)CCCCCCCCCCCCCCCCCCC(=O)O)C(=O)O)C(=O)N[C@@H](CC(N)=O)C(=O)N[C@@H]([C@@H](C)O)C(=O)N[C@@H](C)C(=O)N[C@@H]([C@@H](C)O)C(=O)N1)[C@@H](C)O)C(=O)N[C@@H](CC(C)C)C(=O)N1CCC[C@H]1C(=O)N[C@@H](Cc1c[nH]cn1)C(=O)N[C@H](C(=O)N[C@@H](CC(N)=O)C(=O)N[C@H](C(=O)NCC(=O)N[C@@H](CO)C(=O)N[C@@H](CC(N)=O)C(=O)N[C@H](C(=O)N[C@@H](Cc1ccc(O)cc1)C(N)=O)[C@@H](C)O)C(C)C)[C@@H](C)O
B1: the “Amylin receptor human EC50” value in assay [1] was determined as 0.167 nM. For the same molecule, the “CTa receptor human EC50” value in assay [2] is 0.191 nM.

B2: N-alpha-[(S)-4-Carboxy-4-(19-carboxynonadecanoylamino)butyryl]-Glu-[His1,Glu14,His17]-pramlintide (peptide)
peptide: {C20 diacid-γGlu}-EHCNTATCATQRLAEFLHHSSNNFGPILPPTNVGSNTY-NH2
modifications: disulfide 3-8
SMILES: CC[C@H](C)[C@H](NC(=O)[C@@H]1CCCN1C(=O)CNC(=O)[C@H](Cc1ccccc1)NC(=O)[C@H](CC(N)=O)NC(=O)[C@H](CC(N)=O)NC(=O)[C@H](CO)NC(=O)[C@H](CO)NC(=O)[C@H](Cc1c[nH]cn1)NC(=O)[C@H](Cc1c[nH]cn1)NC(=O)[C@H](CC(C)C)NC(=O)[C@H](Cc1ccccc1)NC(=O)[C@H](CCC(=O)O)NC(=O)[C@H](C)NC(=O)[C@H](CC(C)C)NC(=O)[C@H](CCCNC(=N)N)NC(=O)[C@H](CCC(N)=O)NC(=O)[C@@H](NC(=O)[C@H](C)NC(=O)[C@@H]1CSSC[C@H](NC(=O)[C@H](Cc2c[nH]cn2)NC(=O)[C@H](CCC(=O)O)NC(=O)CC[C@H](NC(=O)CCCCCCCCCCCCCCCCCCC(=O)O)C(=O)O)C(=O)N[C@@H](CC(N)=O)C(=O)N[C@@H]([C@@H](C)O)C(=O)N[C@@H](C)C(=O)N[C@@H]([C@@H](C)O)C(=O)N1)[C@@H](C)O)C(=O)N[C@@H](CC(C)C)C(=O)N1CCC[C@H]1C(=O)N1CCC[C@H]1C(=O)N[C@H](C(=O)N[C@@H](CC(N)=O)C(=O)N[C@H](C(=O)NCC(=O)N[C@@H](CO)C(=O)N[C@@H](CC(N)=O)C(=O)N[C@H](C(=O)N[C@@H](Cc1ccc(O)cc1)C(N)=O)[C@@H](C)O)C(C)C)[C@@H](C)O
For the molecule B2, in assay [1], the “Amylin receptor human EC50” value was 0.248 nM. Besides, the “CTa receptor human EC50” value in assay [2] turned out to be 0.439 nM.
